From paper PMC8103790

Substrate: CCCCC/C=C\C/C=C\C/C=C\C/C=C\CCCC(=O)O
Experiment: purified protein
Conditions: heme cyclooxygenase channel

B1: wild-type human COX-2 (huCOX-2) (Homo sapiens) (protein)
chain: ANPCCSHPCQNRGVCMSVGFDQYKCDCTRTGFYGENCSTPEFLTRIKLFLKPTPNTVHYILTHFKGFWNVVNNIPFLRNAIMSYVLTSRSHLIDSPPTYNADYGYKSWEAFSNLSYYTRALPPVPDDCPTPLGVKGKKQLPDSNEIVEKLLLRRKFIPDPQGSNMMFAFFAQHFTHQFFKTDHKRGPAFTNGLGHGVDLNHIYGETLARQRKLRLFKDGKMKYQIIDGEMYPPTVKDTQAEMIYPPQVPEHLRFAVGQEVFGLVPGLMMYATIWLREHNRVCDVLKQEHPEWGDEQLFQTSRLILIGETIKIVIEDYVQHLSGYHFKLKFDPELLFNKQFQYQNRIAAEFNTLYHWHPLLPDTFQIHDQKYNYQQFIYNNSILLEHGITQFVESFTRQIAGRVAGGRNVPPAVQKVSQASIDQSRQMKYQSFNEYRKRFMLKPYESFEELTGEKEMSAELEALYGDIDAVELYPALLVEKPRPDAIFGETMVEVGAPFSLKGLMGNVICSPAYWKPSTFGGEVGFQIINTASIQSLICNNVKGCPFTSFSVPDPELIKTVTINASSSRSGLDDINPTVLLKERSTEL
  Km: 17.7 ± 1.9 µM
